According to patent publication US20040192898A1 (published 2004):

Target: T1, Amyloid-beta 1-42 (UniProt P05067 672-713)
T1 construct: domain: Amyloid-beta 1-42; Bought peptide; 1-42 counts on the Aβ peptide, not on APP; also called Aβ1-42
Experiment: SPR, BIAcore 2000; antibody captured, Aβ flowed over
Description: Antibody affinity (KD=Kd/Ka) was determined using a BlAcore biosensor 2000 and data analyzed with BlAevaluation (v. 3.1) software. A capture antibody (rabbit anti-mouse) was coupled via free amine groups to carboxyl groups on flow cell 2 of a biosensor chip (CM5) using N-ethyl-N-dimethylaminopropyl carbodiimide and N-hydroxysuccinimide (EDC/NHS). A non-specific rabbit IgG was coupled to flow cell 1 as a background control. Monoclonal antibodies were captured to yield 300 resonance units (RU). […] To regenerate the chip, bound anti-Aβ antibody was eluted from the chip using a wash with glycine-HCI (pH 2). A control injection containing no amyloid-beta served as a control for baseline subtraction.

T1 sequence (P05067 672-713 limits assumed): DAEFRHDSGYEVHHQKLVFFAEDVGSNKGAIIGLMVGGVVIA

B1: Humanized 266 antibody (antibody, human IgG1, kappa, V domains shown)
VH: EVQLVESGGGLVQPGGSLRLSCAASGFTFSRYSMSWVRQAPGKGLELVAQINSVGNSTYYPDTVKGRFTISRDNAKNTLYLQMNSLRAEDTAVYYCASGDYWGQGTLVTVSS
VL: DVVMTQSPLSLPVTLGQPASISCRSSQSLIYSDGNAYLHWFLQKPGQSPRLLIYKVSNRFSGVPDRFSGSGSGTDFTLKISRVEAEDVGVYYCSQSTHVPWTFGQGTKVEIKR
modifications: N-glycosylated at Asn 56 (fully) and Asn 292
notes: Human IgG1 (pVg1) / kappa, expressed in Sp2/0; also called Hu266
B1 was tested, and the Kd was 4 pM.
